The values that follow come from publication PMC12344017 (Nature Communications, 2025).

This data set concerns the molecule itself. Kind of data set: cryo-EM structure.

B1: MscS/YnaI chimera (other, E. coli | Escherichia coli, UniProt P0C0S1 1-31, looked up)
chain: MEDLNVVDSINGAGSWLVANQALLLSYAVNIIDFICTSLIAVILTIKLFLLINQFEKQQIKKGRDITSARIMSRIIKITIIVVLVLLYGEHFGMSLSGLLTFGGIGGLAVGMAGKDILSNFFSGIMLYFDRPFSIGDWIRSPDRNIEGTVAEIGWRITKITTFDNRPLYVPNSLFSSISVENPGRMTNRRITTTIGLRYEDAAKVGVIVEAVREMLKNHPAIDQRQTLLVYFNQFADSSLNIMVYCFTKTTVWAEWLAAQQDVYLKIIDIVQSHGADFAFPSQTLYMDNITPPEQGR
Turning to B1, the binding result is recorded as “binds”.
